{"source": "patent US20230331809A1", "about": "(Zymeworks, published 2023)", "key": {"[1]": {"target": "T1, CD40 (Cluster of Differentiation 40) on cells (UniProt P25942 21-277, limits assumed)", "assay": "cell-based or functional assay"}, "[2]": {"target": "T1, CD40 (Cluster of Differentiation 40) on …", "assay": "flow cytometry on Raji cells (CD40), MFI"}, "[3]": {"target": "T1, CD40 (Cluster of Differentiation 40) on …", "assay": "flow cytometry on Raji cells, samples with and without uPa"}, "[4]": {"target": "T1, CD40 (Cluster of Differentiation 40) on …", "assay": "flow cytometry on Raji cells (CD40), MFI; sample treated with uPa; EC50 relative to v32477 -uPa"}, "[5]": {"target": "T1, CD40 (Cluster of Differentiation 40) on …", "assay": "flow cytometry on Raji cells (CD40), MFI; sample treated with uPa (variant has no cleavage site)"}, "[6]": {"target": "T1, CD40 (Cluster of Differentiation 40) on …", "assay": "cell-based or functional assay", "remark": "listed apart in the source"}, "[7]": {"target": "T1, CD40 (Cluster of Differentiation 40) on …", "assay": "flow cytometry on Raji cells, sample without uPa"}, "[8]": {"target": "T2, CD3 (Cluster of Differentiation 3) on Jurkat cells and on pan T cells (human, UniProt P07766 23-207)", "T2 construct": "whole, on cells", "assay": "cell ELISA on Jurkat cells (CD3), OD450"}, "[9]": {"target": "T3, PD-L1 (Programmed death-ligand 1) on cells (UniProt Q9NZQ7 19-290)", "T3 construct": "whole, on cells", "assay": "flow cytometry on PD-L1 transfected CHO-S cells, sample without uPa"}, "[10]": {"target": "T2, CD3 (Cluster of Differentiation 3) on …", "assay": "cell ELISA on Jurkat cells (CD3), OD450; EC50 relative to v30421"}, "[11]": {"target": "T4, PD-1 (Programmed Cell Death Protein 1) on cells (UniProt Q15116 25-288)", "T4 construct": "whole, on cells", "assay": "flow cytometry on PD-1 transfected CHO-S cells, MFI; * poor fit"}, "[12]": {"target": "T2, CD3 (Cluster of Differentiation 3) on …", "assay": "cell ELISA on Jurkat cells (CD3), OD450", "remark": "listed apart in the source"}, "[13]": {"target": "T2, CD3 (Cluster of Differentiation 3) on …", "assay": "cell ELISA on CD3-bearing Jurkat cells, sample without uPa"}, "[14]": {"target": "T2, CD3 (Cluster of Differentiation 3) on …", "assay": "cell ELISA on Jurkat cells (CD3), OD450; EC50 relative to v30421", "remark": "listed apart in the source"}}, "note": "Like-named read-outs stand apart in the source and are kept apart here."}
{"binder": "Variant 32477: Unmasked aCD40 mAb (antibody, human IgG1, kappa, also called v32477) heavy: not shown light: DIQMTQSPSSVSASVGDRVTITCRASQGIYSWLAWYQQKPGKAPNLLIYTASTLQSGVPSRFSGSGSGTDFTLTISSLQPEDFATYYCQQANIFPLTFGGGTKVEIKRTVAAPSVFIFPPSDEQLKSGTASVVCLLNNFYPREAKVQWKVDNALQSGNSQESVTEQDSKDSTYSLSSTLTLSKADYEKHKVYACEVTHQGLSSPVTKSFNRGEC", "values": [{"measurement": "EC50, CD40 RGA, FcgRIIB CHOK1 (sample v32477 + uPa)", "setting": "[1]", "result": 0.03, "unit": "mg/L"}, {"measurement": "EC50, CD40 RGA, FcgRIIB CHOK1 (sample v32477 - uPa)", "setting": "[1]", "result": 0.05, "unit": "mg/L"}, {"measurement": "EC50, CD40 RGA, HEK Blue only (sample v32477 + uPa)", "setting": "[1]", "result": 0.13, "unit": "mg/L"}, {"measurement": "EC50, CD40 RGA, HEK Blue only (sample v32477 - uPa)", "setting": "[1]", "result": 0.15, "unit": "mg/L"}, {"measurement": "EC50, CD40 RGA, WT CHOK1 (sample v32477 + uPa)", "setting": "[1]", "result": 0.1, "unit": "mg/L"}, {"measurement": "EC50, CD40 RGA, WT CHOK1 (sample v32477 - uPa)", "setting": "[1]", "result": 0.14, "unit": "mg/L"}, {"measurement": "Fold wrt WT (EC50), CD40 RGA, FcgRIIB CHOK1 (sample v32477 + uPa)", "setting": "[1]", "result": 0.71, "unit": "fold"}, {"measurement": "Fold wrt WT (EC50), CD40 RGA, HEK Blue only (sample v32477 + uPa)", "setting": "[1]", "result": 0.86, "unit": "fold"}, {"measurement": "Fold wrt WT (EC50), CD40 RGA, WT CHOK1 (sample v32477 + uPa)", "setting": "[1]", "result": 0.75, "unit": "fold"}, {"measurement": "EC50", "setting": "[2]", "result": 0.98, "unit": "nM"}, {"measurement": "EC50", "setting": "[3]", "result": 1, "unit": "nM"}, {"measurement": "Fold wrt WT", "setting": "[4]", "result": 0.96, "unit": "fold"}, {"measurement": "EC50", "setting": "[5]", "result": 0.94, "unit": "nM"}]}
{"binder": "Variant 32479: HA PD-1:WT PD-L1 masked aCD40 Mab, PD-L1 cleavable (not treated with uPa) (antibody, human IgG1, kappa, also called v32479; untreated v32479) heavy: not shown light: AFTVTVPKDLYVVEYGSNMTIECKFPVEKQLDLAALIVYWEMEDKNIIQFVHGEEDLKVQHSSYRQRARLLKDQLSLGNAALQITDVKLQDAGVYRCMISYGGADYKRITVKVNAEAAAKEAAAKMSGRSANADIQMTQSPSSVSASVGDRVTITCRASQGIYSWLAWYQQKPGKAPNLLIYTASTLQSGVPSRFSGSGSGTDFTLTISSLQPEDFATYYCQQANIFPLTFGGGTKVEIKRTVAAPSVFIFPPSDEQLKSGTASVVCLLNNFYPREAKVQWKVDNALQSGNSQESVTEQDSKDSTYSLSSTLTLSKADYEKHKVYACEVTHQGLSSPVTKSFNRGEC", "values": [{"measurement": "CD40 reporter gene assay, fold masking of activity", "setting": "[6]", "result": 55, "unit": "fold"}, {"measurement": "EC50, CD40 RGA, FcgRIIB CHOK1 (sample v32479 - uPa)", "setting": "[1]", "result": 2.64, "unit": "mg/L"}, {"measurement": "EC50, CD40 RGA, WT CHOK1 (sample v32479 - uPa)", "setting": "[1]", "result": 44.7, "unit": "mg/L"}, {"measurement": "Fold wrt WT (EC50), CD40 RGA, FcgRIIB CHOK1 (sample v32479 - uPa)", "setting": "[1]", "result": 54.3, "unit": "fold"}, {"measurement": "Fold wrt WT (EC50), CD40 RGA, WT CHOK1 (sample v32479 - uPa)", "setting": "[1]", "result": 326, "unit": "fold"}, {"measurement": "fold reduction of binding vs unmasked v32477", "setting": "[7]", "result": 14, "unit": "fold"}, {"measurement": "EC50", "setting": "[2]", "result": 14, "unit": "nM"}]}
{"binder": "Variant 30436: WT PD-1:HA PD-L1 masked CD3 × Her2 Fab × scFv Fc, PD-1 cleavable (not treated with uPa) (bispecific antibody, human IgG1, kappa, L234A L235A, also called masked, heavy-chain-cleavable variant) heavy: not shown light: AFTVTVPKDLYVVEYGSNMTIECKFPVEKQLDLAALQVFWMMEDKNIIQFVHGEEDLKVQHSSYRQRARLLKDQLSLGNAALQITDVKLQDAGVYTCLIAYKGADYKRITVKVNAEAAAKEAAAKDIQMTQSPSSLSASVGDRVTMTCSASSSVSYMNWYQQKPGKAPKRWIYDSSKLASGVPARFSGSGSGTDYTLTISSLQPEDFATYYCQQWSRNPPTFGGGTKLQITRTVAAPSVFIFPPSDEQLKSGTASVVCLLNNFYPREAKVQWKVDNALQSGNSQESVTEQDSKDSTYSLSSTLTLSKADYEKHKVYACEVTHQGLSSPVTKSFNRGEC not shown", "values": [{"measurement": "EC50", "setting": "[8]", "result": 180, "unit": "nM"}, {"measurement": "binding result", "setting": "[9]", "result": "no binding (tested: titrated from 200 nM at a 1:3 dilution)"}, {"measurement": "Fold wrt WT", "setting": "[10]", "result": 150, "unit": "fold"}, {"measurement": "Fold wrt v31931", "setting": "[11]", "result": "> 35", "unit": "fold"}]}
{"binder": "Variant 30444: WT CTLA4:WT CD80 masked CD3 × Her2 Fab × scFv Fc, CTLA4 cleavable (not treated with uPa) (bispecific antibody, human IgG1, kappa, L234A L235A, also called v30444) heavy: not shown light: MHVAQPAVVLASSRGIASFVCEYASPGKATEVRVTVLRQADSQVTEVCAATYMMGNELTFLDDSICTGTSSGNQVNLTIQGLRAMDTGLYICKVELMYPPPYYLGIGNGTQIYVIDPEEAAAKEAAAKMSGRSANADIQMTQSPSSLSASVGDRVTMTCSASSSVSYMNWYQQKPGKAPKRWIYDSSKLASGVPARFSGSGSGTDYTLTISSLQPEDFATYYCQQWSRNPPTFGGGTKLQITRTVAAPSVFIFPPSDEQLKSGTASVVCLLNNFYPREAKVQWKVDNALQSGNSQESVTEQDSKDSTYSLSSTLTLSKADYEKHKVYACEVTHQGLSSPVTKSFNRGEC not shown", "values": [{"measurement": "EC50", "setting": "[12]", "result": 100, "unit": "nM"}, {"measurement": "fold decrease of target binding", "setting": "[13]", "result": "~80", "unit": "fold"}, {"measurement": "Fold wrt WT", "setting": "[14]", "result": 83, "unit": "fold"}]}
